# Source: patent publication US20240132578A1
# Assays:
# [1] = target: WT JR-FL gp120 (HIV-1 JR-FL); assay: ELISA, antigen-coated wells, mAb titrated; EC50 by nonlinear regression
# [2] = target: HIV-1 JR-CSF Env S334A (HIV-1 isolate JR-CSF) (UniProt P20871); assay: cell-based or functional assay
# [3] = target: HIV-1 Env of isolate MGRM-AE-004 (pseudovirus) (HIV-1); assay: cell-based or functional assay
# [4] = target: HIV-1 Env of isolate MGRM-AE-006 (pseudovirus) (HIV-1); assay: cell-based or functional assay
# [5] = target: HIV-1 Env of isolate MGRM-AE-005 (pseudovirus) (HIV-1); assay: cell-based or functional assay
# [6] = target: HIV-1 envelope glycoprotein (Env) of isolate MGRM-Chronic-B-011, on pseudovirus (HIV-1); assay: cell-based or functional assay
# [7] = target: HIV-1 JR-CSF Env R419A (HIV-1 (isolate JR-CSF)) (UniProt P20871); assay: cell-based or functional assay
# [8] = target: HIV-1 JR-CSF Env I424A (HIV-1 (isolate JR-CSF)) (UniProt P20871); assay: cell-based or functional assay
# [9] = target: HIV-1 JR-CSF Env L416A (HIV-1 (isolate JR-CSF)) (UniProt P20871); assay: cell-based or functional assay
# [10] = target: HIV-1 92RW020 Env (HIV-1); assay: cell-based or functional assay
# [11] = target: HIV-1 Env of isolate MGRM-G-017 (subtype G) (HIV-1); assay: cell-based or functional assay
# [12] = target: HIV-1 Env of isolate MGRM-Chronic-B-024 (HIV-1); assay: cell-based or functional assay
# [13] = target: HIV-1 Env of isolate MGRM-Chronic-B-012 (HIV-1); assay: cell-based or functional assay
# [14] = target: HIV-1 Env of isolate 92WR021 (pseudovirus) (HIV-1); assay: cell-based or functional assay
# [15] = target: HIV-1 Env of isolate QH0692.42 (HIV-1); assay: cell-based or functional assay
# [16] = target: HIV-1 Env of isolate 92WR020 (pseudovirus) (HIV-1); assay: cell-based or functional assay
# [17] = target: HIV-1 Env of isolate 93IN905 (HIV-1); assay: cell-based or functional assay
# [18] = target: HIV-1 Env of isolate 92UG037 (pseudovirus) (HIV-1); assay: cell-based or functional assay
# [19] = target: HIV-1 Env of isolate 98IN022 (HIV-1); assay: cell-based or functional assay
# [20] = target: HIV-1 Env of isolate SC422661.8 (HIV-1); assay: cell-based or functional assay
# [21] = target: HIV-1 Env of pseudovirus MGRM-F1-010 (HIV-1); assay: cell-based or functional assay
# [22] = target: HIV-1 Env of pseudovirus MGRM-D-021 (HIV-1); assay: cell-based or functional assay
# [23] = target: HIV-1 Env of isolate JRCSF (HIV-1) (UniProt P20871); assay: cell-based or functional assay
# [24] = target: HIV-1 Env of isolate 92UG031 (pseudovirus) (HIV-1); assay: cell-based or functional assay
# [25] = target: HIV-1 Env of isolate 97ZA012 (HIV-1); assay: cell-based or functional assay
# [26] = target: HIV-1 Env of isolate MGRM-Chronic-B-011 (HIV-1); assay: cell-based or functional assay
# [27] = target: HIV-1 Env of isolate THR0.18 (HIV-1); assay: cell-based or functional assay
# [28] = target: HIV-1 Env of isolate MGRM-Chronic-B-018 (HIV-1); assay: cell-based or functional assay
# [29] = target: HIV-1 Env of isolate MGRM-Chronic-B-023 (HIV-1); assay: cell-based or functional assay
# [30] = target: HIV-1 Env of isolate 92WR024 (pseudovirus) (HIV-1); assay: cell-based or functional assay
# [31] = target: HIV-1 Env of isolate TRO.11 (HIV-1); assay: cell-based or functional assay
# [32] = target: HIV-1 Env of isolate 93MW959 (HIV-1); assay: cell-based or functional assay
# [33] = target: HIV-1 Env of pseudovirus MGRM-F1-013 (HIV-1); assay: cell-based or functional assay
# [34] = target: HIV-1 Env of isolate NL43 (HIV-1); assay: cell-based or functional assay
# [35] = target: HIV-1 Env of isolate VLGCB3 (HIV-1); assay: cell-based or functional assay
# [36] = target: HIV-1 Env of isolate PVO.4 (HIV-1); assay: cell-based or functional assay
# [37] = target: HIV-1 Env of isolate 93WR029 (pseudovirus) (HIV-1); assay: cell-based or functional assay
# [38] = target: HIV-1 Env of isolate MGRM-Chronic-B-010 (HIV-1); assay: cell-based or functional assay
# [39] = target: HIV-1 Env of isolate MGRM-Chronic-B-020 (HIV-1); assay: cell-based or functional assay
# [40] = target: HIV-1 Env of isolate 93UG077 (pseudovirus) (HIV-1); assay: cell-based or functional assay
# [41] = target: HIV-1 Env of isolate MGRM-Chronic-B-017 (HIV-1); assay: cell-based or functional assay
# [42] = target: HIV-1 Env of isolate SF162 (HIV-1) (UniProt P19550); assay: cell-based or functional assay
# [43] = target: HIV-1 Env of isolate TRJ04551.58 (HIV-1); assay: cell-based or functional assay
# [44] = target: HIV-1 Env of isolate 94UG103 (pseudovirus) (HIV-1); assay: cell-based or functional assay
substance,measurement,setting,value
4858_P08 (PGT-123) (antibody),EC50,[1],0.2 µg/mL
same,Fold IC50 increase relative to wild-type,[2],> 50 fold
same,"IC50 (µg/mL), pseudovirus neutralization",[3],> 50 µg/mL
same,"IC50 (µg/mL), pseudovirus neutralization",[4],> 50 µg/mL
same,"IC50 (µg/mL), pseudovirus neutralization",[5],> 50 µg/mL
same,"IC50, pseudovirus neutralization",[6],> 50 µg/mL
same,Fold IC50 increase relative to wild-type (pseudovirus neutralization),[7],0.7 fold
same,Fold IC50 increase relative to wild-type (pseudovirus neutralization),[8],0.5 fold
same,Fold IC50 increase relative to wild-type (pseudovirus neutralization),[9],0.9 fold
same,"IC50, pseudovirus neutralization",[10],0.0038 µg/mL
VRC01 (antibody),"IC50 (µg/mL), pseudovirus neutralization",[11],0.124 µg/mL
same,"IC50, pseudovirus neutralization",[12],0.377 µg/mL
same,"IC50, pseudovirus neutralization",[13],1.03 µg/mL
same,"IC50 (µg/mL), single-round pseudovirus neutralization",[3],0.187 µg/mL
same,"IC50 (µg/mL), single-round pseudovirus neutralization",[14],0.066 µg/mL
same,"IC50, pseudovirus neutralization",[15],1.19 µg/mL
same,"IC50 (µg/mL), single-round pseudovirus neutralization",[16],0.13 µg/mL
same,"IC50, pseudovirus neutralization",[17],0.138 µg/mL
same,"IC50 (µg/mL), single-round pseudovirus neutralization",[4],4.65 µg/mL
same,"IC50 (µg/mL), single-round pseudovirus neutralization",[18],0.245 µg/mL
same,"IC50, pseudovirus neutralization",[19],0.342 µg/mL
same,"IC50, pseudovirus neutralization",[20],0.179 µg/mL
same,"IC50, pseudovirus neutralization",[21],0.097 µg/mL
same,"IC50, pseudovirus neutralization",[22],33.4 µg/mL
same,"IC50, pseudovirus neutralization",[23],0.164 µg/mL
same,"IC50 (µg/mL), single-round pseudovirus neutralization",[24],0.469 µg/mL
same,"IC50, pseudovirus neutralization",[25],0.088 µg/mL
same,"IC50 (µg/mL), single-round pseudovirus neutralization",[5],0.029 µg/mL
same,"IC50, pseudovirus neutralization",[26],0.587 µg/mL
same,"IC50, pseudovirus neutralization",[27],2.46 µg/mL
same,"IC50, pseudovirus neutralization",[28],0.328 µg/mL
same,"IC50, pseudovirus neutralization",[29],0.275 µg/mL
same,"IC50 (µg/mL), single-round pseudovirus neutralization",[30],0.327 µg/mL
same,"IC50, pseudovirus neutralization",[31],0.186 µg/mL
same,"IC50, pseudovirus neutralization",[32],0.053 µg/mL
same,"IC50, pseudovirus neutralization",[33],0.17 µg/mL
same,"IC50, pseudovirus neutralization",[34],0.1 µg/mL
same,"IC50, pseudovirus neutralization",[35],0.108 µg/mL
same,"IC50, pseudovirus neutralization",[36],0.218 µg/mL
same,"IC50 (µg/mL), single-round pseudovirus neutralization",[37],1.57 µg/mL
same,"IC50, pseudovirus neutralization",[38],0.156 µg/mL
same,"IC50, pseudovirus neutralization",[39],0.424 µg/mL
same,"IC50 (µg/mL), single-round pseudovirus neutralization",[40],0.097 µg/mL
same,"IC50, pseudovirus neutralization",[41],0.141 µg/mL
same,"IC50, pseudovirus neutralization",[42],0.421 µg/mL
same,"IC50, pseudovirus neutralization",[43],0.06 µg/mL
same,"IC50 (µg/mL), single-round pseudovirus neutralization",[44],0.285 µg/mL
5141_B17 (PGT-126) (antibody),EC50,[1],0.1 µg/mL
same,Fold IC50 increase relative to wild-type,[2],> 30 fold
same,"IC50 (µg/mL), pseudovirus neutralization",[3],> 50 µg/mL
same,"IC50 (µg/mL), pseudovirus neutralization",[4],17.3 µg/mL
same,"IC50 (µg/mL), pseudovirus neutralization",[5],0.324 µg/mL
same,"IC50, pseudovirus neutralization",[6],0.108 µg/mL
same,Fold IC50 increase relative to wild-type (pseudovirus neutralization),[7],1.2 fold
same,Fold IC50 increase relative to wild-type (pseudovirus neutralization),[8],0.4 fold
same,Fold IC50 increase relative to wild-type (pseudovirus neutralization),[9],0.8 fold
same,"IC50, pseudovirus neutralization",[10],0.0046 µg/mL
